Data: ChEMBL document CHEMBL1139388, “Crystal structure of the Homo sapiens kynureninase-3-hydroxyhippuric acid inhibitor complex: insights into the molecular basis of kynureninase substrate specificity” (J Med Chem, 2009)
Where a chain is given by its changes, count along the chain named. In names and notes the source's numbering stands.

How the values were obtained:
Details in all cases: Homo sapiens
[1] = substrate: Nc1ccccc1C(=O)C[C@H](N)C(=O)O
Description: (§1) Activity of human wild type kynureninase

[2] = substrate: Nc1c(O)cccc1C(=O)CC(N)C(=O)O
Description: as §1

[3] = substrate: Nc1ccccc1C(=O)C[C@H](N)C(=O)O; remark: listed apart in the source
Description: (§2) Ratio of kcat to Km for human wild type kynureninase

[4] = substrate: Nc1c(O)cccc1C(=O)CC(N)C(=O)O; remark: listed apart in the source
Description: as §2

[5] = substrate: Nc1ccccc1C(=O)C[C@H](N)C(=O)O; remark: listed apart in the source
Description: (§3) Activity of human kynureninase S332G/N333T mutant

[6] = substrate: Nc1c(O)cccc1C(=O)CC(N)C(=O)O; remark: listed apart in the source
Description: as §3

[7] = substrate: Nc1ccccc1C(=O)C[C@H](N)C(=O)O; remark: listed apart in the source
Description: (§4) Ratio of kcat to Km for human kynureninase S332G/N333T mutant

[8] = substrate: Nc1c(O)cccc1C(=O)CC(N)C(=O)O; remark: listed apart in the source
Description: as §4

[9] = substrate: Nc1ccccc1C(=O)C[C@H](N)C(=O)O; remark: listed apart in the source
Description: Activity of human kynureninase H102W/N333T mutant

[10] = substrate: Nc1ccccc1C(=O)C[C@H](N)C(=O)O; remark: listed apart in the source
Description: (§5) Ratio of kcat to Km for human kynureninase H102W/N333T mutant

[11] = substrate: Nc1c(O)cccc1C(=O)CC(N)C(=O)O; remark: listed apart in the source
Description: as §5

[12] = substrate: Nc1ccccc1C(=O)C[C@H](N)C(=O)O; remark: listed apart in the source
Description: (§6) Activity of human kynureninase N333T mutant

[13] = substrate: Nc1c(O)cccc1C(=O)CC(N)C(=O)O; remark: listed apart in the source
Description: as §6

[14] = substrate: Nc1ccccc1C(=O)C[C@H](N)C(=O)O; remark: listed apart in the source
Description: (§7) Ratio of kcat to Km for human kynureninase N333T mutant

[15] = substrate: Nc1c(O)cccc1C(=O)CC(N)C(=O)O; remark: listed apart in the source
Description: as §7

[16] = substrate: Nc1ccccc1C(=O)C[C@H](N)C(=O)O; remark: listed apart in the source
Description: (§8) Ratio of kcat to Km for human kynureninase H102W/S332G/N333T mutant

[17] = substrate: Nc1c(O)cccc1C(=O)CC(N)C(=O)O; remark: listed apart in the source
Description: as §8

[18] = substrate: Nc1ccccc1C(=O)C[C@H](N)C(=O)O; remark: listed apart in the source
Description: Activity of human kynureninase H102W/S332G/N333T mutant

B1: Kynureninase (Homo sapiens), Q16719 (protein)
chain: MEPSSLELPADTVQRIAAELKCHPTDERVALHLDEEDKLRHFRECFYIPKIQDLPPVDLSLVNKDENAIYFLGNSLGLQPKMVKTYLEEELDKWAKIAAYGHEVGKRPWITGDESIVGLMKDIVGANEKEIALMNALTVNLHLLMLSFFKPTPKRYKILLEAKAFPSDHYAIESQLQLHGLNIEESMRMIKPREGEETLRIEDILEVIEKEGDSIAVILFSGVHFYTGQHFNIPAITKAGQAKGCYVGFDLAHAVGNVELYLHDWGVDFACWCSYKYLNAGAGGIAGAFIHEKHAHTIKPALVGWFGHELSTRFKMDNKLQLIPGVCGFRISNPPILLVCSLHASLEIFKQATMKALRKKSVLLTGYLEYLIKHNYGKDKAATKKPVVNIITPSHVEERGCQLTITFSVPNKDVFQELEKRGVVCDKRNPNGIRVAPVPLYNSFHDVYKFTNLLTSILDSAETKN
[1]
  Km: 495 µM
  kcat: 0.23 s⁻¹
[2]
  Km: 28.3 µM
  kcat: 3.5 s⁻¹
[3]
  kcat/Km: 465 M⁻¹ s⁻¹
[4]
  kcat/Km: 1.23 ×10⁵ /M/s

B2: Kynureninase (Homo sapiens), Q16719 S332G,N333T (protein)
chain: B1 chain with S332G, N333T
[5]
  Km: 540 µM
  kcat: 0.017 s⁻¹
[6]
  Km: > 510 µM
  kcat: < 10.9 ×10⁻³ /s
[7]
  kcat/Km: 31.4 M⁻¹ s⁻¹
[8]
  kcat/Km: 21.5 M⁻¹ s⁻¹

B3: Kynureninase (Homo sapiens), Q16719 H102W,N333T (protein)
chain: B1 chain with H102W, N333T
[9]
  Km: 327 µM
  kcat: 0.007 s⁻¹
[10]
  kcat/Km: 21.4 M⁻¹ s⁻¹
[11]
  kcat/Km: < 0.0165 M⁻¹ s⁻¹

B4: Kynureninase (Homo sapiens), Q16719 N333T (protein)
chain: B1 chain with N333T
[12]
  Km: 499 µM
  kcat: 0.026 s⁻¹
[13]
  Km: > 200 µM
  kcat: < 3.9 ×10⁻³ /s
[14]
  kcat/Km: 52.1 M⁻¹ s⁻¹
[15]
  kcat/Km: 19.8 M⁻¹ s⁻¹

B5: Kynureninase (Homo sapiens), Q16719 H102W,S332G,N333T (protein)
chain: B1 chain with H102W, S332G, N333T
[16]
  kcat/Km: 126 M⁻¹ s⁻¹
[17]
  kcat/Km: < 0.0165 M⁻¹ s⁻¹
[18]
  Km: 143 µM
  kcat: 0.018 s⁻¹
